The source of these data is US10548950B2, “Irisin-related cancer treatments” (STC.UNM, priority 2014, dated 2020).

The test system of experiment [1] is MDA-MB-231 cells. The experiment in a line: Doxorubicin sensitivity: cell viability (WST-1) with Dox with or without irisin. In kind it is cell-based, Human. The note with it: 24 hours. On the procedure:
Cells were seeded overnight at a density of 5,000 cells/well, treated with or without varying concentrations of IM or INM (from 0.625 nM to 20 nM) (N=12). Cells were then incubated for 1 hour in medium containing 10% WST-1 cell proliferation reagent from Roche (Indianapolis, Ind.) and fluorescence was measured using a Wallac Victor3V 1420 Multilabel Counter from PerkinElmer (Waltham, Mass.). These methods were repeated with varying concentrations (from 0.156 μM to 10 μM) of the antineoplastic Doxorubicin (Dox) from Sigma (St. Louis, Mo.) dissolved in DMSO (using 0.1% for all treatments including control) with 2 nM IM or INM for 24 hours (N=8). At 24 hours, Dox uptake was measured using phase-contrast and fluorescence (N=24). Treatment concentrations and duration were determined empirically through pilot experiments and from previously published observations for Dox.^20

In experiment [2] the test system is caspase-3/7 activity in MDA-MB-231 cells. The experiment in a line: Caspase-3/7 activity (kinetic apoptosis reagent, Incucyte ZOOM). In kind it is cell-based, Human. The note with it: MDA-MB-231, various concentrations, 24 hours. An excerpt:
Cells were co-treated as previously described (N=12) with a kinetic caspase-3/7 apoptosis reagent from Essen Bioscience (Ann Arbor, Mich.). Caspase-3/7 activity was indicated by mean green fluorescence measured by the Incucyte ZOOM as described above.

The test system of experiment [3] is malignant and non-malignant breast epithelial cell. The experiment in a line: Cell metabolism (data not shown). It counts as cell-based, Human. The note with it: malignant and non-malignant cells.
Experiment [4] deals with obesity-related cancer cells. To be noted: Moon et al., MTT endpoint assay; cited from earlier work.
Another experiment relates to MCF-10a cells. The experiment in a line: Cell viability (WST-1) after irisin treatment for 24 hours. It counts as cell-based, Human. To be noted: 0.625 nM to 20 nM, 24 hours post treatment. On the procedure: (§1) Human non-malignant breast epithelial cells (MCF-10a), malignant breast epithelial cells (MCF-7), and malignant aggressive breast epithelial cells (MDA-MB-231) were purchased from American Type Culture Collection (Manassas, Va.). Cells were maintained under standard conditions (37° C. in a 5% CO2) using growth media as described in Supporting Information Table 1. Cells were treated with either human recombinant non-modified irisin (INM) from Cayman Chemical (Ann Arbor, Mich.) or human recombinant modified and active (glycosylated) irisin (IM) from PlexBio (San Francisco, Calif.) at concentrations ranging from 0.625 nM to 20 nM dissolved in culture media for 24 hours. Concentrations of irisin were determined empirically through pilot experiments based on and previously published observations.^9 MDA-MB-231 cells were labeled with red fluorescent protein (RFP) by lentiviral-transfection using CytoLight Red vector from Essen Bioscience (Ann. Arbor, Mich.). […]
(§2) Cells were seeded overnight at a density of 5,000 cells/well, treated with or without varying concentrations of IM or INM (from 0.625 nM to 20 nM) (N=12). Cells were then incubated for 1 hour in medium containing 10% WST-1 cell proliferation reagent from Roche (Indianapolis, Ind.) and fluorescence was measured using a Wallac Victor3V 1420 Multilabel Counter from PerkinElmer (Waltham, Mass.). […]

Experiment [5] has as its system MDA-MB-231 cells. Described as above. To be noted: 0.625 nM to 20 nM, compared with control. It counts as cell-based, Human. On the procedure: as §1, §2
The next experiment deals with RFP MDA-MB-231 cells. The experiment in a line: Cell proliferation by automated red object counting (Incucyte ZOOM). In kind it is cell-based, Human. To be noted: 2 nM, 24 hours, compared with control. On the procedure: as §1
RFP MDA-MB-231 cells were seeded overnight in 96-well plates at a density of 5,000 cells/well and treated with or without irisin at 2 nM (IM or INM) (N=64). Cell proliferation was measured by automated red object counting optimized for MDA-MB-231 cells using the Incucyte ZOOM live content imaging from Essen Bioscience (Ann Arbor, Mich.), measured every hour for 24 hours. […]

Experiment [6] relates to NFκB activity in MDA-MB-231 cells. The experiment in a line: NFκB-GFP reporter system. In kind it is cell-based, Human. To be noted: MDA-MB-231, 24 hours. On the procedure:
Cells were transfected with a NFκB GFP-linked reporter system from Qiagen (Valencia, Calif.) before treatment with IM, INM, or TNF-α from R and D Systems (Minneapolis, Minn.) at various concentrations for 24 hours (N=12). NFκB activity was indicated by mean fluorescence measured by the Incucyte ZOOM as described above.

As for `COc1cccc2c1C(=O)c1c(O)c3c(c(O)c1C2=O)C[C@@](O)(C(=O)CO)C[C@@H]3O[C@H]1C[C@H](N)[C@H](O)[C@H](C)O1` [Dox, Doxorubicin, reference compound], the “Cell viability, Dox treatment alone” value was “not” in the experiment on MDA-MB-231 cells [1] (MDA-MB-231, Dox 100 nM or 1.0 μM) and “reduced cell viability” in the experiment on MDA-MB-231 cells [1] (MDA-MB-231, Dox 10 μM).

For the molecule TNF-α [reference compound], the Caspase-3/7 activity entry in experiment [2] is “significantly elevated”.

B1: irisin: 112 aa peptide cleaved from FNDC5; term covers both non-modified (INM) and glycosylated (IM) irisin (protein)
chain: DSPSAPVNVTVRHLKANSAVVSWDVLEDEVVIGFAISQQKKDVRMLRFIQEVNTTTRSCALWDLEEDTEGIVHVQAISIQGQSPASEPVLFKTPREAEKMASKNKDEVTMKE
modifications: non-modified irisin
notes: 112 aa peptide cleaved from FNDC5; term covers both non-modified (INM) and glycosylated (IM) irisin
B1: the “Breast epithelial cell metabolism” value in experiment [3] is reported as “not significantly altered”. Also, the “Cell proliferation in obesity-related cancer cells” value in experiment [4] is “no significant affect on cell proliferation”.

B2: IM: human recombinant modified and active (glycosylated) irisin from PlexBio (protein, UniProt Q8NAU1 1-191, looked up)
Irisin: MQAARGGAGRPERPGRPGRGPERERERPPGAGAASPCAAPGLPAGGATIHPGSPSAWPPRARAALRLWLGCVCFALVQADSPSAPVNVTVRHLKANSAVVSWDVLEDEVVIGFAISQQKKDVRMLRFIQEVNTTTRSCALWDLEEDTEYIVHVQAISIQGQSPASEPVLFKTPREAEKMASKNKDEVTMKE
modifications: Irisin glycosylated
For the molecule B2, the “Cell viability of MCF-10a cells” value with MCF-10a cells is reported as “decreased at the highest tested dose”. Moreover, the “Cell viability of MDA-MB-231 cells” value with MDA-MB-231 cells [5] is “unaffected”. In addition, in the experiment on RFP MDA-MB-231 cells, the “Cell proliferation of MDA-MB-231 cells” value is reported as “did not alter cell proliferation”. The Caspase-3/7 activity entry in experiment [2] was “failed to activate caspase-3/7 activity”. The NFκB activity result in experiment [6] is on record as “did not alter NFκB activity”. Besides, the “Enhancement of Dox killing by irisin” value in the experiment on MDA-MB-231 cells [1] (MDA-MB-231, 2 nM irisin with Dox 100 nM to 10 μM) is given as “significantly enhanced Dox killing at 1.0 μM”.
